According to patent publication US8034355:

Target: VSV L protein (wild type, rVSV) (Vesicular stomatitis Indiana virus) (UniProt P03523)
Settings: 5' Gppp cap (7mGpppAm when fully methylated)

Chain of UniProt P03523 (P03523 whole entry): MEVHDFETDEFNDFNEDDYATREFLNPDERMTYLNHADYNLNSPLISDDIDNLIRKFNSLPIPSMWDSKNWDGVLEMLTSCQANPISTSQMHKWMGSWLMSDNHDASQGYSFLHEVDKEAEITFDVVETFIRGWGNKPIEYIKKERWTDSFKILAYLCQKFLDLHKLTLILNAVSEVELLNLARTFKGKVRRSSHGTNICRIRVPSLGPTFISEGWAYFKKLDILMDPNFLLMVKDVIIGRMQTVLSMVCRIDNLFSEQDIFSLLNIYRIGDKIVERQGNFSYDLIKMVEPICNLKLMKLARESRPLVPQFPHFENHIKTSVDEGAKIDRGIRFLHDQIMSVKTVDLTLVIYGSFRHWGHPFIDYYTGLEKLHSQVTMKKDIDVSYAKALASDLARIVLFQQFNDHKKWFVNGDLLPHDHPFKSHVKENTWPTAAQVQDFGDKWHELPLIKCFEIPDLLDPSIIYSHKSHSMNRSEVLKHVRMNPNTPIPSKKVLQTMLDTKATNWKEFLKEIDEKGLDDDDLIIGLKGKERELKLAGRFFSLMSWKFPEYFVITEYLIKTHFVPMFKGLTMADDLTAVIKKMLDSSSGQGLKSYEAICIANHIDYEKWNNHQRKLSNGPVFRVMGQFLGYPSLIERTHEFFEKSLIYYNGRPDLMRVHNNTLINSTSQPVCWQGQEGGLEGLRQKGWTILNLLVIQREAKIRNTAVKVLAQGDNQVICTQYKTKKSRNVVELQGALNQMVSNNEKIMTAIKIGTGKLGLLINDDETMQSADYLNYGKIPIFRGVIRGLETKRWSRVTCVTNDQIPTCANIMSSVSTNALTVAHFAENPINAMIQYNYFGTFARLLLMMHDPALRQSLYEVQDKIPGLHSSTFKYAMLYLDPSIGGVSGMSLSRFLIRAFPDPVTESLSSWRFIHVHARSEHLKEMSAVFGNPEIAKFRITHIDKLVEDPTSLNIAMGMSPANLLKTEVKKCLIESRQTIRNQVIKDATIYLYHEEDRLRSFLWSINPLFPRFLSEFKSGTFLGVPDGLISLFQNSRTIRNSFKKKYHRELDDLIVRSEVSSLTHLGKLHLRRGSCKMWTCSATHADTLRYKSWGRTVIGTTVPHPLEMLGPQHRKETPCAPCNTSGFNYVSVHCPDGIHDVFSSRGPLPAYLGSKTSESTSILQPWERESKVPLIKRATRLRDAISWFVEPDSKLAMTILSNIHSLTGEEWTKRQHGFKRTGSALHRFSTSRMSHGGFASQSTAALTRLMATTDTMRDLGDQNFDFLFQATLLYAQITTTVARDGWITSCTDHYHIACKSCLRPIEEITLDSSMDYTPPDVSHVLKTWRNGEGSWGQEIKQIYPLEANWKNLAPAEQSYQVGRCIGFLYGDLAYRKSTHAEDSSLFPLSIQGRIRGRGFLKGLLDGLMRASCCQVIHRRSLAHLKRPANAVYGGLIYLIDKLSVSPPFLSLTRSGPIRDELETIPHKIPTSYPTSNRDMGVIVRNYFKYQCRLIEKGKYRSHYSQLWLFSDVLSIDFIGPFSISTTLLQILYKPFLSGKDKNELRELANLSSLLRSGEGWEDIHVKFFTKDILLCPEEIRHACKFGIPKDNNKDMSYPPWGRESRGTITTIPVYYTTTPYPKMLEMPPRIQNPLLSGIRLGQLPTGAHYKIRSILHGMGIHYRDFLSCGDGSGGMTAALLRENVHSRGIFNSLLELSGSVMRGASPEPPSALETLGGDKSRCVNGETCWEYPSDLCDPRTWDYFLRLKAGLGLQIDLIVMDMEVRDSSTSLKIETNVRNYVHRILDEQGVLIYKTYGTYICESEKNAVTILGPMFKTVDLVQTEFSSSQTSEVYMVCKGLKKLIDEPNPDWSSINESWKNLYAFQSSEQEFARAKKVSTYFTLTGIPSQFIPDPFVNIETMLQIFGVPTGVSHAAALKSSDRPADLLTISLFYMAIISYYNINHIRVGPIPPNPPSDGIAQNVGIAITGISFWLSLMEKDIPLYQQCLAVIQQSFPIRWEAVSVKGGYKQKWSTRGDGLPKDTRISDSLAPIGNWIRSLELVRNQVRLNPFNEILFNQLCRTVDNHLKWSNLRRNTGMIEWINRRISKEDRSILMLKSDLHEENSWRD

AACAG
activity (% 7mGp of released cap): 97
